Reference: patent US10753947B2, “Methods for screening voltage-gated proteins” (D.E. Shaw Research, LLC, priority 2012, dated 2020)

Experiments:
[1] = system: KV2.1 wild-type base construct (hKv2.1-m7-c3); assay: Alpha currents (Iα) of Kv2.1 WT base construct in Xenopus oocytes, two electrode voltage-clamp; assay type: cell-based, human; conditions: 1 nM AgTx2, WT
Description: The coding cDNAs of KV2.1 “wild-type” (hereinafter WT) base construct (hKv2.1-m7-c3 is human Kv2.1, residues 1-858, mutated to confer AgTx2 sensitivity and to remove extracellular cysteine residues) was synthesized (Entelchon GmbH) and cloned into the high expression vector pBSTA.
Transcripted cRNA was produced using the mMessage mMachine kit (Ambion Inc.). Two to four days past injection of cRNA into stage V-VI Xenopus oocytes (NASCO) potassium currents through the alpha pore (Iα) were recorded with the two electrode voltage-clamp technique making use of a TURBO TEC-05× amplifier (npi electronic GmbH). Currents were filtered at 10 kHz and sampled at 20 kHz. The bath solution contained (in mM): NaCl 96, KCl 2, CaCl2 1, MgCl2 1 and HEPES 5 (pH 7.5). Voltage-recording and current-injecting microelectrodes were filled with 3 M KCl and pulled to have resistances between 0.2 and 1 MΩ (see Stork et al., 2007). The pClamp software package v.10.1 (Molecular Devices, Inc.) was used for data acquisition and analysis.
For recording of alpha currents (Iα), 100 ms pulses were applied from ˜60 to +60 mV in 10 mV steps at 1 Hz from a holding potential of ˜80 mV to the Kv2.1 channel constructs to measure alpha currents (Iα). Passive leak currents were subtracted online using a P/4 procedure: pClamp software generates a series of scaled-down replica sweeps of the main stimulus waveform. […]

[2] = target: T1, Kv2.1 channel in pancreatic β-cells (Homo sapiens, UniProt Q14721); conditions: cited from earlier work
T1 construct: host or cells: pancreatic β-cells (endogenous channel)
T1 sequence (Q14721 1-858): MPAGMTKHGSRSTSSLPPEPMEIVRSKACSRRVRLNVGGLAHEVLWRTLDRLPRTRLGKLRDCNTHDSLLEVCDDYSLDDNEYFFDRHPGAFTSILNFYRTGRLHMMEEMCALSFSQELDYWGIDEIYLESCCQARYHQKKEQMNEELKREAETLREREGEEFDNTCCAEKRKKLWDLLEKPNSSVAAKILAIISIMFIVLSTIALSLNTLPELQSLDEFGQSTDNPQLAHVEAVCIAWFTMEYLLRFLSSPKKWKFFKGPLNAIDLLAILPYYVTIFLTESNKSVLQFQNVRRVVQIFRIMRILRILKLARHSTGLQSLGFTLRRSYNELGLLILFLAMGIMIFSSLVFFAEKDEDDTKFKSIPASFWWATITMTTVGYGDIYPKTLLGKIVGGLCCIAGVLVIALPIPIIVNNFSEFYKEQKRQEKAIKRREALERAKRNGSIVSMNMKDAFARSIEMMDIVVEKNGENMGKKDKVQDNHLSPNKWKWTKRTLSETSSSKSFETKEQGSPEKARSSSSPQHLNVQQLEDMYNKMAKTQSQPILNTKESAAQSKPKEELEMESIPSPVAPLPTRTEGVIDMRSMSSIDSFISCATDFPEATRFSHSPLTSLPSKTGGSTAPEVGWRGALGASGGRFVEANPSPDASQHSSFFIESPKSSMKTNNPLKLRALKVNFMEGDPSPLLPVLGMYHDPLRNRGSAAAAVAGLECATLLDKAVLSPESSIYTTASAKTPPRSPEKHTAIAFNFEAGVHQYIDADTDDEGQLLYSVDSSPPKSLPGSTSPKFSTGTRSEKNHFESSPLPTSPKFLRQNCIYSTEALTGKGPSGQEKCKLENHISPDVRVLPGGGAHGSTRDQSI

Kv2.2 = target: T2, Kv2.2 (Homo sapiens, UniProt Q92953); conditions: Table 5; read-out: IC50, channel Kv2.2; cited from earlier work
T2 sequence (Q92953 1-911): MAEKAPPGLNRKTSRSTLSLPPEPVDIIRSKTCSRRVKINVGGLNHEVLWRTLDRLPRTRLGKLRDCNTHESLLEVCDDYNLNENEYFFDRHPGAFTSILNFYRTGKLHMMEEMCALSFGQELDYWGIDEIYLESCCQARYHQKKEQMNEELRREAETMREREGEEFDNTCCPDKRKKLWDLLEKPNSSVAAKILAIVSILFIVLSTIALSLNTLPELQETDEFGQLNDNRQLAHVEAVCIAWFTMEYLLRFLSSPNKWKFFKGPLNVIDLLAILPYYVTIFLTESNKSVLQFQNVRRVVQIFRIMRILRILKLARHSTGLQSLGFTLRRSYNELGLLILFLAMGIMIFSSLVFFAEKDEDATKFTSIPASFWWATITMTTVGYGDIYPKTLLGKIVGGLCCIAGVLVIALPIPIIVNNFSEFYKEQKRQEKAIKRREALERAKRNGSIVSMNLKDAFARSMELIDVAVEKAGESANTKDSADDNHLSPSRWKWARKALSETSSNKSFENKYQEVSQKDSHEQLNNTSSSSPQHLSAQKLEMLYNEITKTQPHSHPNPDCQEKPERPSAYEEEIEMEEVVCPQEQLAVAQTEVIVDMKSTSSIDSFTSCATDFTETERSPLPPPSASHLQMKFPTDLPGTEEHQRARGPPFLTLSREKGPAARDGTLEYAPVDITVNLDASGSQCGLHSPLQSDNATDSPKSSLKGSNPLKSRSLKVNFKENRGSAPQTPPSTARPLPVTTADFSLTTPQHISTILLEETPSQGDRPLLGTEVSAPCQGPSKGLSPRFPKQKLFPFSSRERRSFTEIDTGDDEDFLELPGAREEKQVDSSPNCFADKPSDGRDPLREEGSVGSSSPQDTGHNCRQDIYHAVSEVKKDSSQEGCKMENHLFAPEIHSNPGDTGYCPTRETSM

Kv1.2 = Kv1.2 (Homo sapiens, UniProt P16389); conditions: Table 5; result in words; cited from earlier work
Kv1.2, sequence (P16389 whole entry): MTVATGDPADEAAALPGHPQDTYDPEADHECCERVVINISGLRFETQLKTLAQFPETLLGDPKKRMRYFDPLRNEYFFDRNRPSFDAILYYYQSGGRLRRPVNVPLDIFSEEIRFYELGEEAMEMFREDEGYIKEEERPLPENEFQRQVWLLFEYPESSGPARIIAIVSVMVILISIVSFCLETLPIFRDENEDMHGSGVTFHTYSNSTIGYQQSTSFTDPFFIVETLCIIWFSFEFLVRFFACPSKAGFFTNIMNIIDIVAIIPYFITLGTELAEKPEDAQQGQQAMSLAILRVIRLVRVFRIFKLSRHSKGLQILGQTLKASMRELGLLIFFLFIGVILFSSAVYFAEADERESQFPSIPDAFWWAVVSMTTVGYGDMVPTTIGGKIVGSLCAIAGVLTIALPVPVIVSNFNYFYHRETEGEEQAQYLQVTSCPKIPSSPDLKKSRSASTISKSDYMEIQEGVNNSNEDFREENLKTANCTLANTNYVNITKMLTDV

Substance | Mean inhibition of the maximal outward current at +60 mV [1] | Inhibits the Kv2.1 channel in pancreatic β-cells [2] | IC50 (Kv2.2) | IC50, channel Kv1.2 (Kv1.2)
Agitotoxin-2 (GVPINVSCTGSPQCIKPCKDAGMRFGKCMNRKCHCTPK) [AgTx2] | 66.5±2.9% |  |  | 
Guangxitoxin (EGECGGFWWKCGSGKPACCPKYVCSPKWGLCNFPMP) [GxTx-1E] |  | nanomolar range | 2.6 nM | No effect
